The experiment addresses 2xMyc‐PAK6 (p21‐activated kinase 6) (human) (UniProt Q9NQU5). As to the kind of experiment: co-IP; lysates of HEK293T cells co-transfected with Flag-LRRK2 and Myc-PAK6 or Myc-14-3-3; immunoprecipitation with anti-Flag or with anti-Myc; washes in lysis buffer (50 mM Tris pH 7.5, 1% Triton X-100) with 0.25 M NaCl; immunoblot. (A western blot detects proteins with antibodies after separation by electrophoresis.)

Among the data in article PMC4715492 are fold of LRRK2 bound, against 2xMyc‐14‐3‐3 zeta values, retold here.

Chain of UniProt Q9NQU5 (Q9NQU5 whole entry): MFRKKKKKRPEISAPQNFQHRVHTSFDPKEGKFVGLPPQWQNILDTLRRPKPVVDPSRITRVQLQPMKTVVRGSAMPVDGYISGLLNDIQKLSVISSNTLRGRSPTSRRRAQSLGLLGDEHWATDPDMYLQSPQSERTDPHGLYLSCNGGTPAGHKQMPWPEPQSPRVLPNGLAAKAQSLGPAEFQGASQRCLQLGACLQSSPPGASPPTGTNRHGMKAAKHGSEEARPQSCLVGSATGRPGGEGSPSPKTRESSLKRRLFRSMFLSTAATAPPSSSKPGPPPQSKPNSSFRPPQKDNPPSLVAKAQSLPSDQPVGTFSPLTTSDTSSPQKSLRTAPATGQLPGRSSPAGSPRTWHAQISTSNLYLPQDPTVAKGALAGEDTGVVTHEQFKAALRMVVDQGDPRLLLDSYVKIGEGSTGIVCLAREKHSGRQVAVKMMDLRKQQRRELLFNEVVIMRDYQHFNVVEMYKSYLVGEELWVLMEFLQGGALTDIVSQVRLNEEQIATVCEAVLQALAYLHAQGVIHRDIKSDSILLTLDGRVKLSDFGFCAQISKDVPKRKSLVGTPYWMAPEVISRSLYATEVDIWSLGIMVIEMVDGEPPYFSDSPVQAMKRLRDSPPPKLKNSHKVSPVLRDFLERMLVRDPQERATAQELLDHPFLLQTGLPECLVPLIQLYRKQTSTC

With 3xFlag‐LRRK2 wild type, Q5S007 1-2527, the fold of LRRK2 bound, against 2xMyc‐14‐3‐3 zeta was 3.5 fold.
